This note sets out measurements from patent CN112592401A.

The target in this assay is 灭活非洲猪瘟病毒抗原 (非洲猪瘟全病毒). The assay can be described thus: ELISA with whole ASFV, as in Fig. 6 (scFv coated, inactivated ASFV captured). (An ELISA detects its analyte on a solid surface through an enzyme-linked reagent.)

B1: 抗非洲猪瘟病毒的ScFv抗体VH-VLλ11 (scFv)
scFv: MEVKLVESGGGLVQPGGSLRLSCVGSEYEFRGSLIHWVRQAPGKGLEWLATICTTDPITEYADSVKGRFTISRDSSQNTAYLQMDSLRGEDTARYYCGVAFSYGGGCHRMDLRGQGVEVVVGGGGSGGMSQTVIQEPAMSVSPGGTVTLTCAFSSGSESTRKYPIRFQQTPGQPPRLLIYHTNSRPTGVPSRFSGAISGNKAALTITGAQAEDEADYFCSLYIRTYNVPFGGGTHLTVL
As for B1, the OD450nm was found to be 1.12 OD450nm.
